Patent US20220227872A1 (LUDWIG INSTITUTE FOR CANCER RESEARCH, published 2022)

B1: murine tumor endothelial marker 1 (TEM1) on cells (receptor)
chain: QVPWTPEPRAACGPSSCYALFPRRRTFLEAWRACRELGGNLATPRTPEEAQRVDSLVGVGPANGLLWIGLQRQARQCQPQRPLRGFIWTTGDQDTAFTNWAQPATEGPCPAQRCAALEASGEHRWLEGSCTLAVDGYLCQFGFEGACPALPLEVGQAGPAVYTTPFNLVSSEFEWLPFGSVAAVQCQAGRGASLLCVKQPSGGVGWSQTGPLCPGTGCGPDNGGCEHECVEEVDGAVSCRCSEGFRLAADGHSCEDPCAQAPCEQQCEPGGPQGYSCHCRLGFRPAEDDPHRCVDTDECQIAGVCQQMCVNYVGGFECYCSEGHELEADGISCSPAGAMGAQASQDLRDELLDDGEEGEDEEEPWEDFDGTWTEEQGILWLAPTHPPDFGLPYRPNFPQDGEPQRLHLEPTWPPPLSAPRGPYHSSVVSATRPMVISATRPTLPSAHKTSVISATRPPLSPVHPPAMAPATPPAVFSEHQIPKIKANYPDLPFGHKPGITSATHPARSPPYQPPIISTNYPQVFPPHQAPMSPDTHTITYLPPVPPHLDPGDTTSKAHQHPLLPDAPGIRTQAPQLSVSALQPPLPTNSRSSVHETPVPAANQPPAFPSSPLPPQRPTNQTSSISPTHSYSRAPLVPREGVPSPKSVPQLPSVPSTAAPTALAESGLAGQSQRDDRWLLVALLVPTCVFLVVLLALGIVYCTRCGSHAPNKRITDCYRWVTHAGNKSSTEPMPPRGSLTGVQTCRTSV
notes: also called mTEM1; murine TEM1
B2: anti-TEM1 scFv-Fc fusion 2B11 (Fc fusion)
VH: EVQLVETGGGLVKPGGSLRLSCAASGFTFNTYTMNWVRQAPGKGLEWVSSISSSSTYIYYADSVKGRFTISRDNAKNSLYLQMNSLRAEDTAVYYCAKSIVGATHDAFDIWGQGTMVTVSS
VL: DIQMTQSPPTLSASVGDRVTITCRASQSISRWLAWYQQKPGKAPNLLIYDASNLQSGVPSRFSGSGSGTEFTLTISSLQPDDFGTYYCQQYKNYSPTFGQGTKLEIK
notes: also called 2B11 scFv-Fc
B3: human tumor endothelial marker 1 (TEM1) on cells (receptor)
chain: QDPWAAEPRAACGPSSCYALFPRRRTFLEAWRACRELGGDLATPRTPEEAQRVDSLVGAGPASRLLWIGLQRQARQCQLQRPLRGFTWTTGDQDTAFTNWAQPASGGPCPAQRCVALEASGEHRWLEGSCTLAVDGYLCQFGFEGACPALQDEAGQAGPAVYTTPFHLVSTEFEWLPFGSVAAVQCQAGRGASLLCVKQPEGGVGWSRAGPLCLGTGCSPDNGGCEHECVEEVDGHVSCRCTEGFRLAADGRSCEDPCAQAPCEQQCEPGGPQGYSCHCRLGFRPAEDDPHRCVDTDECQIAGVCQQMCVNYVGGFECYCSEGHELEADGISCSPAGAMGAQASQDLGDELLDDGEDEEDEDEAWKAFNGGWTEMPGILWMEPTQPPDFALAYRPSFPEDREPQIPYPEPTWPPPLSAPRVPYHSSVLSVTRPVVVSATHPTLPSAHQPPVIPATHPALSRDHQIPVIAANYPDLPSAYQPGILSVSHSAQPPAHQPPMISTKYPELFPAHQSPMFPDTRVAGTQTTTHLPGIPPNHAPLVTTLGAQLPPQAPDALVLRTQATQLPIIPTAQPSLTTTSRSPVSPAHQISVPAATQPAALPTLLPSQSPTNQTSPISPTHPHSKAPQIPREDGPSPKLALWLPSPAPTAAPTALGEAGLAEHSQRDDRWLLVALLVPTCVFLVVLLALGIVYCTRCGPHAPNKRITDCYRWVIHAGSKSPTEPMPPRGSLTGVQTCRTSV
notes: Endogenous on A673 and SK-N-AS cells, or full length hTEM1 ORF (NM_020404.3) in pTagGFP2-N transiently expressed in HEK293T cells; also called hTEM1; human TEM1

How the values were obtained:
[1] = target: T1, anti-TEM1 scFv-Fc fusion 3B6; experiment: FACS, scFv-Fc 2 µg/ml on human and murine cell lines
T1 construct: also called 3B6 scFv-Fc
Description: (§1) A673, human Ewing's sarcoma; SK-N-AS, human neuroblastoma; 2H11, murine tumor vascular endothelium; TC1, murine lung adenocarcinoma; HEK293-6E, human embryonic kidney; HT-1080, human fibrosarcoma; MDA-MB-231, human mammary carcinoma; MS1, murine pancreatic islet endothelium.
(§2) Adherent cells were detached using 10 mM EDTA, counted and resuspended in fresh, complete culture medium. All subsequent steps were performed on ice. […] After washing three times with FACS buffer, the secondary antibody, Alexa Fluor 647 AffiniPure Goat Anti-Human IgG (Jackson Immunoresearch, #109-605-098, 1:200 dilution) was added. Following incubation for 30 min the cells were washed again three times. Immediately before data acquisition, dead cells were stained with 4′,6-Diamidino-2-phenylindole (DAPI, 1:2000 dilution). Data was acquired using an LSR-II flow cytometer equipped with […] software (BD Biosciences). Data analysis and plotting were carried out using FlowJo v10 (FlowJo LLC).

[2] = target: B1; experiment: as above
Description: as §1, §2

[3] = target: B3; experiment: FACS on cell lines
Description: as §1, §2

[4] = target: T1, anti-TEM1 scFv-Fc fusion 3B6; experiment: FACS on cell lines
Description: as §1, §2

T1 sequence (VH, as listed by the source, chain 1 of 2): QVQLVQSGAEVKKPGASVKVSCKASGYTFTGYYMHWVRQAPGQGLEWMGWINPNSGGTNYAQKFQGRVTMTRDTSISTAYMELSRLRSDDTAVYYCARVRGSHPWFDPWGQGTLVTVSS
T1 sequence (VL, as listed by the source, chain 2 of 2): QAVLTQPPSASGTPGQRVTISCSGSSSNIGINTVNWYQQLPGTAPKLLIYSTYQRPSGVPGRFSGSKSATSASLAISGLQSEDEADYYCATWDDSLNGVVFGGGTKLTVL

## B1
[1]
  binding result: binds

## B2
[2]
  binding result: binds
[3]
  binding result: binds

## B3
[4]
  binding result: binds
